This experiment concerns the target T1, 10th and 11th cadherin repeat domains of the Plutella xylostella cadherin (PxCR10–11), GST-tagged (Plutella xylostella).
T1 construct: Plutella xylostella cadherin, 10th and 11th CR domains, residues 1258–1602 aa; also called truncated recombinant P. xylostella cadherin; source: Escherichia coli expression system, purified (GST-Sefinose prepacked gravity column)
The experiment in a line: BLI; Octet Red 96; GST-tagged PxCR10–11 loaded onto anti-GST biosensors; toxin 38.5 to 576.9 nM in solution; 400 s association, 400 s dissociation; 10 mM GSH, 50 mM Tris, pH 8.0; 1:1 binding model. The following applies: both partners purified.

The Kd is a measure of binding affinity in units of concentration.

B1: Bacillus thuringiensis insecticidal protein (Bt toxin) Cry2Ab30 (natural protein)
chain: MNSVLNSGRTTICDAYNVAAHDPFSFQHKSLDTVQKEWTEWKKNNHSLYLDPIVGTVASFLLKKVGSLVGKRILSELRNLIFPSGSTNLMQDILRETEKFLNQRLNTDTLARVNAELTGLQANVEEFNRQVDNFLNPNRNAVPLSITSSVNTMQQLFLNRLPQFQMQGYQLLLLPLFAQAANLHLSFIRDVILNADEWGISAATLRTYRDYLKNYTRDYSNYCINTYQSAFKGLNTRLHDMLEFRTYMFLNVFEYVSIWSLFKYQSLLVSSGANLYASGSGPQQTQSFTSQDWPFLYSLFQVNSNYVLNGFSGARLSNTFPNIVGLPGSTTTHALLAARVNYSGGISSGDIGASPFNQNFNCSTFLPPLLTPFVRSWLDSGSDREGVATVTNWQTESFETTLGLRSGAFTARGNSNYFPDYFIRNISGVPLVVRNEDLRRPLHYNEIRNIASPSGTPGGARAYMVSVHNRKNNIHAVHENGSMIHLAPNDYTGFTISPIHATQVNNQTRTFISEKFGNQGDSLRFEQNNTTARYTLRGNGNSYNLYLRVSSIGNSTIRVTINGRVYTATNVNTTTNNDGVNDNGARFSDINIGNVVASSNSDVPLDINVTLNSGTQFDLMNIMLVPTNISPLY
B1 yielded a Kd of 28.7 nM.

For the origin of these results see publication PMC6783867, “Synthesis and Characterization of Cry2Ab–AVM Bioconjugate: Enhanced Affinity to Binding Proteins and Insecticidal Activity” (Toxins, 2019).
